The values that follow come from patent US20160200830A1 (NANJING LEGEND BIOTECH, published 2016).

First the molecules themselves.
B1: sdAb A60401 (VHH)
VHH: QVKLEESGGGLVQAGGSLRLSCEASGNVFTIAAMGWFRQAPGKERELVAGITTGGSTNYADSVKGRFTISRDNAQNTMYLQMNSLRPEDTAAYSCNAVTKWAARVGGSAEYEYWGQGTQVTVSS
notes: Llama sdAb, made in E. coli periplasm, His-tagged, for SPR; not shown: C-terminal histidine tag added by vector pSJF2H
B2: sdAb A60219 (VHH)
VHH: QVQLVESGGGLVQAGGSLRLSCVASGSGFGINGVIWYRQAPGKQRELVALIKSDGYTNYRESVKGRFTISRDDAKNTVWLQMNALEPEDTGVYYCKTPGVPFGQGTQVTVSS
notes: Llama sdAb, made in E. coli periplasm, His-tagged, for SPR; also called A602019; not shown: C-terminal histidine tag added by vector pSJF2H
B3: sdAb A13376 (VHH)
VHH: QVKLEESGGGLVQAGGSLRLSCAASGNVFTIAAMAWYRQAPGKERELVAGITTGGSTNYADSVKGRFTISRDNAQNTMYLQMNSLRPEDTAVYFCNAVTKWAARVGGSAEYEYWGQGTQVTVSS
B4: sdAb A69476 (VHH)
VHH: QVKLEESGGGLVQPGGSLRLSCAASGNVFTIDAMGWYRQAPGKEREVVVGMTNGGKTNYADSVKGRFTISRDNAKNTVSLQMNSLKPEDTAVYYCYARSKLIATINNPYDYWGQGTQVTVSS
B5: sdAb A12692 (VHH)
VHH: EVQLVECGGGLVQAGGSLRLSCVASGSGFGINGVIWYRQAPGKQRELVALIKSDGYTNYRESVKGRFTISRDDAKNTVWLQMNALEPEDTGVYYCKTPGVPFGQGTQVTVSS
B6: sdAb A13152 (VHH)
VHH: QVQLVESGGGLVQAGGSLRLSCVAPGSGFGINGVIWYRQAPGKQRELVALIKSDGYTNYRESVKGRFTISRDDAKNTVWLQMNALEPEDTGVYYCKTPGVPFGQGTQVTVSS
B7: sdAb A12690 (VHH)
VHH: QVQLVESGGGLVQPGGSLRLSCVASGSGFGINGVIWYRQAPGKRRELVALIKSDGYTNYRESVKGRFTISRDDAKNTVWLQMNALEPEDTGVYYCKTPGVPFGQGTQVTVSS
B8: sdAb A12659 (VHH)
VHH: EVQLVECGGGLVQAGGSLRLSCVASGSGFGINGVIWYRQAPGKQRELVALIKSDGYTNYRESVKGRFTISRDDARNTVWLQMNALEPEDTGVYYCKTPGVPFGQGTQVTVSS
B9: sdAb A13154 (VHH)
VHH: QVQLVESGGGLVQPGGSLRLSCVASGSGFGINGVIWYRQAPGKQRELVALIKSDGYTNYRESVKGRFTISRDDAKNTVWLQMSALEPEDTGVYYCKTPGVPFGQGTQVTVSS
B10: sdAb A13355 (VHH)
VHH: QVKLEESGGGLVQAGGSLRLSCVASGSGFGINGVIWYRQAPGKQRELVALIKSDGYTNYRESVRGRFTISRDDAKNTVWLQMNALEPEDTGVYYCKTPGVPFGQGTQVTVSS
B11: sdAb A12666 (VHH)
VHH: QVKLEESGGGLVQAGGSLRLSCVASGSGFGVNGVIWYRQAPGKQRELVALIKSDGYTNYRESVKGRFTISRDDAKNTVWLQMNALEPEDTGVYYCKTPGVPFGQGTQVTVSS
B12: sdAb A69441 (VHH)
VHH: QVKLEESGGGLVQPGGSLRLSCAASGSIFSIKVMGWYRQAPGKQRELVADITSGGSTDYSDSVKGRFTISRDNAKNTVYLQMNSLKPEDTAVYYCNADLGCSGAGSCPDYWGQGTQVTVSS
B13: sdAb A69449 (VHH)
VHH: QVQLVESGGGVVQAGGSLRLSCVASGSVFSIDAMGWYRQAPGNQRELVAAMTNAGSTNYADSVKGRFTISRDNAENTVYLQMNSLKPEDTAVYYCNARSKLIARINNPYEYWGQGTQVTVSS
notes: Llama sdAb, made in E. coli periplasm, His-tagged, for SPR; also called A60449; not shown: C-terminal histidine tag added by vector pSJF2H
B14: sdAb A69447 (VHH)
VHH: QVKLEESGGGSVQAGGSLRLSCTGSGSIFPLNDMGWYRQAPGKQRELVATITRGGTTNYADSVKGRFTISRDSNAKNTVYLQMNSLKVEDTAVYYCNMDNRVGGSYWGQGTQVTVSS
notes: as for B1
B15: sdAb A69433 (VHH)
VHH: QVKLEESGGGLVQAGGSLRLSCVASGNVFGIDAVGWYRQAPGKQRELVAATTTSGSSTNYADSVKGRFTISRDIAKNTVYLQMDSLKPEDTAVYYCYARPKQATLIRDDYWGQGTQVTVSS
notes: as for B1

T1 sequence (P02787 20-698 limits assumed): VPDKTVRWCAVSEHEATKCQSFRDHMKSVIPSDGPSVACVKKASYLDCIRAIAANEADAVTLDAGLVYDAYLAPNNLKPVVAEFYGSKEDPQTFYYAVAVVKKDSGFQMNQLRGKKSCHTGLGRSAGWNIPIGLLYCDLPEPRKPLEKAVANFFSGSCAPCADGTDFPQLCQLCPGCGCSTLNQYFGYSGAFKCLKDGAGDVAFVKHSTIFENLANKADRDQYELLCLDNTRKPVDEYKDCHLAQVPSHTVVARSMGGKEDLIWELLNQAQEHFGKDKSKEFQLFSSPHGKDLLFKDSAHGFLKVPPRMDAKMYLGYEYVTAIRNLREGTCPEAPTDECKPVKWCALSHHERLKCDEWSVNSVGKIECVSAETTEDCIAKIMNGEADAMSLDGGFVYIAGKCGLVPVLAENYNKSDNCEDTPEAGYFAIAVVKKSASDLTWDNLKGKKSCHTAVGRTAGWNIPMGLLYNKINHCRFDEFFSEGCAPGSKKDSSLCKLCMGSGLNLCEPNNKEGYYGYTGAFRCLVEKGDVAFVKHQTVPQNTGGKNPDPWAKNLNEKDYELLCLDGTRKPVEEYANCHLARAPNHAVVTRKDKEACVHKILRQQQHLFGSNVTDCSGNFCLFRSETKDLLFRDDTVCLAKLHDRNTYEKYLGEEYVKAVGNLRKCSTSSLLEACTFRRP

The first test addresses T1, human transferrin (human, UniProt P02787 20-698).
T1 construct: Immobilized on a CM5 chip by amine coupling (SPR) or coated on a plate (phage ELISA)
As to the kind of experiment: SPR, Biacore T200, transferrin immobilized on CM5 chip, sdAb as analyte. The protocol:
Experiments were performed using a BIAcore T200 optical sensor platform and research grade CM5 sensor chips (GE Healthcare). Human transferrin was immobilized on the sensor chip surface by standard amine coupling. All experiments were carried out in HEPES buffer [10 mM HEPES (pH 7.4), 150 mM NaCl, 3.4 mM EDTA, 0.005% Tween 20] at 25° C. Antibodies were injected at serial dilutions ranging from 0.25 nM to 16 nM at a flow rate of 30 μl/min unless otherwise indicated. The amount of bound analyte after subtraction from the blank control surface is shown as relative response units (RU). The double referenced sensorgrams from each injection series were analyzed for binding kinetics using BIA evaluation software (GE Healthcare). Dissociation constants (KDs) were calculated from the on- and off-rates (kₒₙ and koff, respectively), as determined by global fitting of the experimental data to a 1:1 Langmuir binding model (Chi²<1).
In general terms: Surface plasmon resonance follows binding to a sensor surface in real time, without labels.
Broadly, the Kd is the free concentration of one partner at which half of the binding sites on the other are occupied at equilibrium, for simple one-to-one binding. As a reminder, the koff is the rate constant with which the complex falls apart. The term kon denotes the second-order rate constant of association. As to B1, the Kd was 0.0671 nM, the koff turned out to be 6.22e-05 s⁻¹ and the kon was determined as 927000 M⁻¹ s⁻¹.

Turning to B2, binding was put at a Kd of 0.0131 nM, the koff was 0.000674 s⁻¹ and the kon was found to be 5.14e+07 M⁻¹ s⁻¹.

The target in a further test is T1, human transferrin. The experiment in a line: phage display panning and phage ELISA. Here is the method:
The llama immune phage display library was panned against transferrin that was conjugated to M-280 beads (Invitrogen). Approximately 3×10¹¹ phages were added to the beads and incubated at 37° C. for 2 hours for antigen binding. After disposal of unbound phages, the beads were washed six times with phosphate buffered saline supplemented with 0.05% Tween 20 (PBST) for round one, and the washes were increased by one for each additional round. Phages were eluted by 10 min incubation with 100 μl 100 mM triethylamine, and the eluate was subsequently neutralized with 200 μl 1 M Tris-HCl (pH 7.5). Phages were amplified as described above, but on a smaller scale. After two rounds of panning, eluted phages were used to infect exponentially growing E. coli TG1. Individual colonies were used in phage enzyme-linked immunosorbent assay (ELISA).
For phage ELISA, a 96-well microliter plate was coated overnight with 2 μg/ml human transferrin and then blocked with 4% […] phosphate buffered saline (MPBS) for 2 hours at 37° C. Phage from individual clones were pre-blocked with 4% MPBS overnight, added to the pre-blocked wells and incubated for 1 hour. Phage ELISA was performed using the GE Healthcare Detection Module Recombinant Phage Antibody System (GE Healthcare, Uppsala, Sweden) and positive phage clones were sequenced.
For B3, the binding result is “binds”.

On to B4, for which the binding result is “binds”.

Consider B5, for which the binding result is recorded as “binds”.

Consider B6, for which the binding result is “binds”.

B7: the binding result is reported as “binds”.

For the molecule B8, the binding result was “binds”.

On to B9, for which the binding result is “binds”.

Regarding B10, the binding result is “binds”.

For B11, the binding result is listed as “binds”.

As for B12, the binding result is “binds”.

In another test the target is T1, human transferrin. The experiment in a line: SPR, transferrin immobilized, sdAb as analyte.
For B13, the Kd came out at 2.03 nM, the koff amounted to 0.000695 s⁻¹ and the association rate constant (kon) was 342000 M⁻¹ s⁻¹.

As to B14, binding was characterised by a dissociation constant (Kd) of 1.03 nM, the koff worked out at 0.000209 s⁻¹ and the kon is 203000 M⁻¹ s⁻¹.

Consider B15, for which binding was put at a Kd of 5.76 nM, the koff was 0.000642 s⁻¹ and the kon amounted to 111000 M⁻¹ s⁻¹.

The next test deals with monkey transferrin (monkey). As to the kind of experiment: SPR, transferrin immobilized, sdAb as analyte.
Take B13: the Kd was 1.12 nM, the koff amounted to 0.000529 s⁻¹ and the kon came out at 471000 M⁻¹ s⁻¹.

The molecule B14 returned a Kd of 0.25 nM, a koff of 7.58e-05 s⁻¹ and a kon of 304000 M⁻¹ s⁻¹.

B15 yielded a Kd of 2.4 nM, a koff of 0.000593 s⁻¹ and a kon of 247000 M⁻¹ s⁻¹.
